Experimental data: patent US7589065B2, “Catalysis of the cis/trans-isomerisation of secondary amide peptide compounds” (Max-Planck Gesellschaft zur Forderung der Wissenschaften, …, priority 2001, dated 2009)

Test: 2D 1H NMR exchange (NOESY) measurement of cis/trans isomerisation in the pentapeptide
Assay type: biochemical
Conditions: 20 μM addition; for relative intensity of the cross signal of the peptide bond Ala-Tyr / relative intensity of the cross signal of the peptide bond Tyr-Ala: 25 mM pentapeptide, pH 7.1, 278° K; for relative intensity of the cross signal of the peptide bond Ala-Tyr: no addition 3.50 ± 0.51; for relative intensity of the cross signal of the peptide bond Tyr-Ala: no addition 3.89 ± 0.32
Source text: A further possibility, only described in 1998, is the determination of the cis/trans isomerisation rate of secondary amide peptide bonds containing aromatic amino acids by means of 2D 1H NMR exchange experiments (Scherer G. et al., 1998, JACS 120:5568-5574). In Example 8, this NMR method is used to determine a catalytic acceleration of the cis/trans isomerisation of the peptide bonds Ala-Tyr and Tyr-Ala within the pentapeptide Ala-Ala-Tyr-Ala-Ala. The acceleration is accomplished by catalytic amounts of DnaK.
NMR Device: Bruker DRX-500, Equipped with z-gradient
• FIG. 8: The alanine methyl region from the two-dimensional exchange 1H-NMR spectrum of 25 mM Ala-Ala-Tyr-Ala-Ala in 25 mM Tris, 11 mM MgCl2, 50 mM KCl, 9:1H2O:D2O, pH 7.1 at 278° K. The mixing time of the phase-sensitive NOESY was 330 ms. Each FID had 184 scans. The amount of data from t1×t2=512×8192 points covered a spectral range of 5501 Hz×5482 Hz. The correction of the base line was carried out by adjustment with a polynom of fifth order in the F2 dimension. […] The experiment was carried out under identical conditions as described above. In addition, 20 μM DnaK was contained in the measuring solution.
In a further analysis of the method of the two-dimensional NOESY experiment illustrated in Example 8, the cross signals can be quantified by means of common mathematical techniques.

| Molecule | catalysis of the cis/trans isomerisation of the Ala-Tyr and Tyr-Ala peptide bonds (in words) | relative intensity of the cross signal of the peptide bond Ala-Tyr | relative intensity of the cross signal of the peptide bond Tyr-Ala |
| --- | --- | --- | --- |
| trigger factor (TF): peptidyl-prolyl cis/trans isomerase (Stoller G. et al., 1995) (protein) MQVSVETTQGLGRRVTITIAADSIETAVKSELVNVAKKVRIDGFRKGKVPMNIVAQRYGASVRQDVLGDLMSRNFIDAIIKEKINPAGAPTYVPGEYKLGEDFTYSVEFEVYPEVELQGLEAIEVEKPIVEVTDADVDGMLDTLRKQQATWKEKDGAVEAEDRVTIDFTGSVDGEEFEGGKASDFVLAMGQGRMIPGFEDGIKGHKAGEEFTIDVTFPEEYHAENLKGKAAKFAINLKKVEERELPELTAEFIKRFGVEDGSVEGLRAEVRKNMERELKSAIRNRVKSQAIEGLVKANDIDVPAALIDSEIDVLRRQAAQRFGGNEKQALELPRELFEEQAKRRVVVGLLLGEVIRTNELKADEERVKGLIEEMASAYEDPKEVIEFYSKNKELMDNMRNVALEEQAVEAVLAKAKVTEKETTFNELMNQQA | neither catalyse | 3.83 ± 1.07 | 4.42 ± 0.58 |
| Parvulin: peptidyl-prolyl cis/trans isomerase (Rahfeld et al., 1994) (protein) AKTAAALHILVKEEKLALDLLEQIKNGADFGKLAKKHSICPSGKRGGDLGEFRQGQMVPAFDKVVFSCPVLEPTGPLHTQFGYHIIKVLYRN | neither catalyse | 2.90 ± 0.96 | 3.11 ± 0.46 |
| fragment of the TF: fragment of the trigger factor (Stoller G. et al., 1996) (protein) RKQQATWKEKDGAVEAEDRVTIDFTGSVDGEEFEGGKASDFVLAMGQGRMIPGFEDGIKGHKAGEEFTIDVTFPEEYHAENLKGKAAKFAINLKKVEERELPELTAE | neither catalyse | 3.96 ± 0.77 | 3.22 ± 0.58 |
